Results published in paper PMC9138545 (2022).
Square brackets hold non-standard residues; d marks the D form. Ends that are not written are not given here. pY = N[C@@H](Cc1ccc(OP(=O)(O)O)cc1)C(=O)O

Columns and labels:
[1] = target: C-terminal SH2 domain of PI3K regulatory subunit 1 (UniProt P27986 614-724); assay: FP
[2] = target: N-terminal SH2 domain of PI3K regulatory subunit 1 (UniProt P27986 321-433); assay: FP
Sequence of N-terminal SH2 domain of PI3K regulatory subunit 1 (P27986 321-433): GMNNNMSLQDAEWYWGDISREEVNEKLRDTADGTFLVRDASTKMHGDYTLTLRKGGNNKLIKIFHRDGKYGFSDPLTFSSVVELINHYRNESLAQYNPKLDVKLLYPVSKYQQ

Sequence of C-terminal SH2 domain of PI3K regulatory subunit 1 (P27986 614-724): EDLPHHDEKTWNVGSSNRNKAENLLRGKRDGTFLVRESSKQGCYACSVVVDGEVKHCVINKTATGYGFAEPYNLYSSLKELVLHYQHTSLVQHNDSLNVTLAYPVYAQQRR

Kd [1] [nM] | Kd [2] [nM] | Binder
2.1 | 137 | GRKGSGD[pY]MPMSPKV-NH2 [phospho-para-Tyr IRS-1 peptide GRKGSGD(pY)MPMSPKV]
18.6 | 408 | GRKGSGDYMPMSPKSK (not fully specified; phosphotyrosine at position 8 of the peptide (tyrosine residue 632 of human IRS1); lys-carboxyfluorescein (K-FITC) at the C-terminal end) [fluorescently labelled phospho-para-tyrosine IRS-1 peptide GRKGSGD(pY)MPMSPKS(K-FITC)]
